In PMC8152229, “Structural and Functional Peculiarities of Cytoplasmic Tropomyosin Isoforms, the Products of TPM1 and TPM4 Genes” (International Journal of Molecular Sciences, 2021):

target: F-actin from rabbit skeletal muscle, stabilised by phalloidin (rabbit, UniProt P68135 1-377); assay: co-sedimentation; 10 uM phalloidin-stabilized F-actin mixed with increasing Tpm (0 to 5.5-6 uM; up to almost 40 uM for Tpm1.12); 30 mM Hepes-Na pH 7.3, 200 mM NaCl; 40 min at 25 °C; 100,000 x g for 40 min; SDS-PAGE of pellet and supernatant; K50% = Tpm concentration at which actin is half-saturated; conditions: both partners purified

K50%	Binder
1.07 µM	Tropomyosin isoform Tpm4.2 (natural protein, cytoplasmic LMW isoform Tpm4.2 of the TPM4 gene (~247 residues), exons 1b, 9d; an N-terminal extension is stated only for the HMW isoforms; source: E. coli C41(DE3), purified (anion exchange, HiTrap QHP); reduced with DTT before experiments) not shown
0.4 µM	Tropomyosin isoform Tpm1.7 with Ala-Ser N-terminal extension (natural protein, Ala-Ser N-terminal extension that mimics natural N-terminal acetylation; cytoplasmic HMW isoform Tpm1.7 of the TPM1 gene (~284 residues), exons 1a2b, 6a, 9d; Alpha-helical coiled-coil dimer; source: E. coli C41(DE3), purified (anion exchange, HiTrap QHP)) not shown
14.9 µM	Tropomyosin isoform Tpm1.12 (natural protein, cytoplasmic LMW isoform Tpm1.12 of the TPM1 gene (~247 residues; exon 9c three residues shorter than 9d), exons 1b, 9c; has Cys-154; no N-terminal extension; source: E. coli C41(DE3), purified (anion exchange, HiTrap QHP); reduced with DTT before experiments) not shown
